Data as given in article PMC12582974, “Characterization of WAC interactions with R2TP and TTT chaperone complexes linking glucose and glutamine availability to mTORC1 activity” (FEBS Open Bio, 2025).

Assays:
[1] = molecular target: mTOR-mLST8 complex (10xHis-TEV-mTOR with untagged mLST8) (human, UniProt P42345 1-2549; Q9BVC4 1-326); assay: pull-down; WAC-3xFlag from Expi293 lysate purified and held on anti-Flag resin (washes incl. 5 mM ATP/5 mM MgCl2); purified prey added 20 min at 4 °C in 150 mM Tris pH 8, 300 mM KCl, 10% glycerol, 0.5 mM TCEP; elution with 3xFlag peptide; SDS/PAGE and western blot; conditions: both partners purified
RUVBL1-RUVBL2 complex = molecular target: T1, RUVBL1-RUVBL2 complex (human, UniProt Q9Y265 1-456; Q9Y230 1-463); assay: as above; conditions: both partners purified
T1 construct: RUVBL1 (RuvB-like 1), human, N-terminal His-tag and TEV site; RUVBL2 (RuvB-like 2), human, untagged; also called RUVBL1‐RUVBL2 module; RUVBL1‐RUVBL2 ATPase module; source: E. coli BL21 (DE3), co-expressed, purified (HisTrap HP; an untagged form by TEV digestion and a second HisTrap step)
T1 sequence (Q9Y265 whole entry, chain 1 of 2): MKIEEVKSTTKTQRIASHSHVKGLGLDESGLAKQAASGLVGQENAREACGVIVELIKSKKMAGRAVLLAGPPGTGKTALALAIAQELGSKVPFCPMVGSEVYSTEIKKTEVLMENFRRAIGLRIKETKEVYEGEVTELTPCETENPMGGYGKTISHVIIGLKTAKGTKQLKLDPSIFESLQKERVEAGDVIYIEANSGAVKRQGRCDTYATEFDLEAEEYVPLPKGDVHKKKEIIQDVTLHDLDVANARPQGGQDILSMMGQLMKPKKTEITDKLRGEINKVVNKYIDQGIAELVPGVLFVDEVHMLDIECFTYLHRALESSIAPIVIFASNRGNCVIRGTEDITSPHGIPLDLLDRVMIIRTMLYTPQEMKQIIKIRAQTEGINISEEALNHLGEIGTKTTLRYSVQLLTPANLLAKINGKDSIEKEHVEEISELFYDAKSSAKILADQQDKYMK
T1 sequence (Q9Y230 whole entry, chain 2 of 2): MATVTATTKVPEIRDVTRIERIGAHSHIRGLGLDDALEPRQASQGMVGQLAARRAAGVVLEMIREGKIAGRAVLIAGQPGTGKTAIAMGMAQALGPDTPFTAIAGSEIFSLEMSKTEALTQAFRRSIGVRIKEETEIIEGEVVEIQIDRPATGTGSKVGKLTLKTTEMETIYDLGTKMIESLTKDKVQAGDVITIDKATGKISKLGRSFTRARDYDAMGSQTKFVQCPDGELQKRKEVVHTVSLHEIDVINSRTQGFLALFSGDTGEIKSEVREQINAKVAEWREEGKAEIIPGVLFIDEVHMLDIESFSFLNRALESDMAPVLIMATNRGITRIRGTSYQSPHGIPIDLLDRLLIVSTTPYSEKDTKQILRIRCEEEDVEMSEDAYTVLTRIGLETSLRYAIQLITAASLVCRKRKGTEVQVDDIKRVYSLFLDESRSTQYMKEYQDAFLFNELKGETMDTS

binding result [1]: binds
binding result (RUVBL1-RUVBL2 complex): binds
B1: WAC-3xFlag (human WAC with C-terminal 3xFlag tag, pACEMam-WAC-3C-3xFlag) (natural protein, UniProt Q9BTA9-1 1-647, looked up)
chain: MVMYARKQQRLSDGCHDRRGDSQPYQALKYSSKSHPSSGDHRHEKMRDAGDPSPPNKMLRRSDSPENKYSDSTGHSKAKNVHTHRVRERDGGTSYSPQENSHNHSALHSSNSHSSNPSNNPSKTSDAPYDSADDWSEHISSSGKKYYYNCRTEVSQWEKPKEWLEREQRQKEANKMAVNSFPKDRDYRREVMQATATSGFASGMEDKHSSDASSLLPQNILSQTSRHNDRDYRLPRAETHSSSTPVQHPIKPVVHPTATPSTVPSSPFTLQSDHQPKKSFDANGASTLSKLPTPTSSVPAQKTERKESTSGDKPVSHSCTTPSTSSASGLNPTSAPPTSASAVPVSPVPQSPIPPLLQDPNLLRQLLPALQATLQLNNSNVDISKINEVLTAAVTQASLQSIIHKFLTAGPSAFNITSLISQAAQLSTQAQPSNQSPMSLTSDASSPRSYVSPRISTPQTNTVPIKPLISTPPVSSQPKVSTPVVKQGPVSQSATQQPVTADKQQGHEPVSPRSLQRSSSQRSPSPGPNHTSNSSNASNATVVPQNSSARSTCSLTPALAAHFSENLIKHVQGWPADHAEKQASRLREEAHNMGTIHMSEICTELKNLRSLVRVCEIQATLREQRILFLRQQIKELEKLKNQNSFMV
notes: WAC (WW domain-containing adaptor with coiled-coil), human, cDNA NM_016628.5 from GenScript (clone OHu28471); An HRV 3C protease site stands between WAC and the 3xFlag tag; also called WW domain-containing adaptor with coiled-coil; WAC lysate; source: Expi293 cells, overexpressed; purified on anti-Flag resin and kept on the beads; not shown: 3xFlag, C-terminal, kept
